Here are results for one molecule from publication PMC5224480 (Nucleic Acids Research, 2016).

For the assay, the target named is T1, β subunit of Thermotoga maritima RNA polymerase (tmβ) (Thermotoga maritima, UniProt P29398 1-1263).
T1 sequence (looked up): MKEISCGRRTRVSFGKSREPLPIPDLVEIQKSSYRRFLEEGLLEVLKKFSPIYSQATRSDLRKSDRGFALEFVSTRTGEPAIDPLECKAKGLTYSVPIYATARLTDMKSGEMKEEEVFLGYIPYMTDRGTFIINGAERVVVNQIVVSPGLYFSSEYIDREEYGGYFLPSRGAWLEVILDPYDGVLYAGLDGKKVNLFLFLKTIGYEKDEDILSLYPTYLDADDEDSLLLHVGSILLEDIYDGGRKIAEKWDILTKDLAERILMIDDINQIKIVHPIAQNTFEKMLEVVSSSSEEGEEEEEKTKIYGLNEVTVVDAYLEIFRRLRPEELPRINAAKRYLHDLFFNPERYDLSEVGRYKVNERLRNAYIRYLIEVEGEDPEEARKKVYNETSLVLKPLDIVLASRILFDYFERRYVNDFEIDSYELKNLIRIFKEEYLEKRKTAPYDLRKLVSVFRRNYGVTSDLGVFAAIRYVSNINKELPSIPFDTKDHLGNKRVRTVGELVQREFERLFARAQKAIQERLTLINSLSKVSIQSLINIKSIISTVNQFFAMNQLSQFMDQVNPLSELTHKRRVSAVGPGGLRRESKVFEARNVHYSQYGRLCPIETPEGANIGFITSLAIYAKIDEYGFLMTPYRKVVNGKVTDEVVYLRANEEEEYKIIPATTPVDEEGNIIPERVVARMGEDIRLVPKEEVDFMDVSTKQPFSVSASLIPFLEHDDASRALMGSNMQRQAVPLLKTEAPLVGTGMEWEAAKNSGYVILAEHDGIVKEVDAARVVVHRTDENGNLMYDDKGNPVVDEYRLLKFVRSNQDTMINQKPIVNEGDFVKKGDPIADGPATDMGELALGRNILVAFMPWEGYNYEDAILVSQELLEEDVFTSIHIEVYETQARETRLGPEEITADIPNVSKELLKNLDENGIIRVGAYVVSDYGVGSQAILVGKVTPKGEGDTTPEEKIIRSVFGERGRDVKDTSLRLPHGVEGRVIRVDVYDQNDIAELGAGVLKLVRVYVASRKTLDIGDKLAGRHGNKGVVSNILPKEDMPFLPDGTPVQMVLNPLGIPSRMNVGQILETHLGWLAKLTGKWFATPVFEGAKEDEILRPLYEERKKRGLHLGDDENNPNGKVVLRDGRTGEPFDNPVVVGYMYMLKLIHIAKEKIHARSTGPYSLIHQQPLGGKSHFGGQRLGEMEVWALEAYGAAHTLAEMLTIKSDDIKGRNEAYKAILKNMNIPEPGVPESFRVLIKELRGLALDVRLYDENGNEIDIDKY
Put plainly: NMR titration.

B1: tmNusG-DII (residues 42-233 of tmNusG) (domain or fragment, Thermotoga maritima, UniProt P29397 42-233, looked up)
chain: EEVVLDATSPSERLILSPKAKLHVNNGKDVNKGDLIAEEPPIYARRSGVIVDVKNVRKIVVETIDRKYTKTYYIPESAGIEPGLRVGTKVKQGLPLSKNEEYICELDGKIVEIERMKKVVVQTPDGEQDVYYIPLDVFDRDRIKKGKEVKQGEMLAEARKFFAKVSGRVEVVDYSTRKEIRIYKTKRRKLFP
As for B1, the binding result is on record as “binds”.
